# From publication PMC7954794, “Protein context shapes the specificity of SH3 domain-mediated interactions in vivo” (Nature Communications, 2021)
# B1: YBL039C (protein, UniProt P28274 1-579, looked up)
# CTP synthase 1: MKYVVVSGGVISGIGKGVLASSTGMLMKTLGLKVTSIKIDPYMNIDAGTMSPLEHGECFVLDDGGETDLDLGNYERYLGVTLTKDHNITTGKIYSHVIAKERKGDYLGKTVQIVPHLTNAIQDWIERVAKIPVDDTGMEPDVCIIELGGTVGDIESAPFVEALRQFQFKVGKENFALIHVSLVPVIHGEQKTKPTQAAIKGLRSLGLVPDMIACRCSETLDKPTIDKIAMFCHVGPEQVVNVHDVNSTYHVPLLLLEQKMIDYLHARLKLDEISLTEEEKQRGLELLSKWKATTGNFDESMETVKIALVGKYTNLKDSYLSVIKALEHSSMKCRRKLDIKWVEATDLEPEAQESNKTKFHEAWNMVSTADGILIPGGFGVRGTEGMVLAARWARENHIPFLGVCLGLQIATIEFTRSVLGRKDSHSAEFYPDIDEKNHVVVFMPEIDKETMGGSMRLGLRPTFFQNETEWSQIKKLYGDVSEVHERHRHRYEINPKMVDELENNGLIFVGKDDTGKRCEILELKNHPYYIATQYHPEYTSKVLDPSKPFLGLVAASAGILQDVIEGKYDLEAGENKFNF
# Tested on: BBC1
# Assay: DHFR-PCA on solid medium, bait BBC1 (Fig. 1B)
# Assay type: cell-based, Saccharomyces cerevisiae
# Conditions: bait BBC1, label = prey
# Description: Supplement 41467_2021_21873_MOESM8_ESM.xlsx, sheet "Fig1B" | column: medsize; medrep; Ratio; Score
molecule,measurement,setting,value
B1,"medrep (log2 median colony size normalized to plate background, PCA score)",2-4 replicates,2.387
same,Ratio (SH3-deleted/WT medrep),"only significant differences showed, PPIs completely lost have a ratio of 0.1 and the gained PPIs 2.5",0.1
